Measurements as given in publication PMC11610669, “A Spectroscopic Study on the Amyloid‐β Interaction with Clicked Peptide‐Porphyrin Conjugates: a Vision Toward the Detection of Aβ Peptides in Aqueous Solution” (Chembiochem, 2024).

Experiments:
Aβ42 [1] = target: T1, Aβ42 (Homo sapiens, UniProt P05067); assay: bis-Ans fluorescence anti-fibrillogenic assay; format: biochemical; details: Aβ42 20 μM, 1:1, 60 μM Bis-Ans solution, phosphate buffer pH 7.4, 37 °C, 65 h, ex/em 385/510 nm, triplicate
Source text: We also carried out fluorescence assays to evaluate the anti‐fibrillogenic ability of the porphyrin‐peptide conjugates. We used the bis‐Ans (4,4’‐Dianilino‐1,1’‐binaphtyl‐5,5’disulphonic acid) as a chromophore instead of the typical Th−T (Thioflavin‐T), to avoid any potential interference that might occur between the porphyrin and Th−T, in both the excitation and emission wavelength regions. The bis‐Ans probe is sensitive to Aβ fibril formation, and it specifically binds to solvent‐exposed hydrophobic surfaces leading to an increase in its fluorescence emission maximum at 510 nm, in our case.[47] The bis‐Ans fluorescence kinetics were recorded with Aβ42 (20 μM) alone or in the presence of the porphyrin‐peptide conjugates at a 1 : 1 molar ratio. The kinetic profiles of the porphyrin‐peptide conjugates in the absence of Aβ42 were also acquired for comparison (Figure 4S). […] The obtained fluorescence intensities were compared with the values obtained for Aβ42 alone.
Bis‐Ans fluorescence kinetics were measured on a Flash Thermo Varioskan spectrofluorometer with excitation and emission at 385 and 510 nm, respectively. Aβ42, alone or in the presence of the porphyrin‐peptide conjugates in a 1 : 1 molar ratio, was dissolved in 10 mM aq NaOH (30 μL). […] Readings were taken every 10 min, after weak shaking for 10 s. The fluorescence intensity was monitored for 65 h. […]

Aβ42 [2] = target: T1, Aβ42; assay: Grating-Coupled Interferometry (GCI) binding to immobilized Aβ42; details: GCI fit quality parameter
Experimental: The Grating‐Coupled Interferometry (GCI) is a widely used analytical technique for characterizing intermolecular interactions. It allows quantitative measurements of both the affinity and the kinetics of the binding events. This high sensitivity label‐free method was exploited to measure the interactions of Aβ42 with Cu‐Ph‐Pep , Ph‐Pep , and Zn‐Ph‐Pep (Figure 5S). Control experiments with pristine MCPTPyP and the peptide GPGKLVFF ( Pep ) were carried out for comparison. The calculated association and dissociation kinetic constants (kon and koff, respectively) and the thermodynamic binding constant (KD), are summarized in Table 1. The obtained values indicate that all the conjugates show good affinities with Aβ42. It is also clear from Table 1 that the peptide moiety is fundamental for the molecular recognition of the Aβ42 peptide.[48] […] Nevertheless, it is important to emphasize that the interaction with Aβ42 is primarily mediated by the peptide rather than by the porphyrin macrocycle. We next investigated whether these peptide derivatives could be employed as molecular probes for the detection of Aβ42 aggregated species. A new set of CD experiments was then carried out with Aβ42 at 20 μM both in the absence and in the presence of the porphyrin‐peptide conjugates at 1 : 1 molar ratio in the UV (195–350) and Visible (350–500) regions. […] The signal rapidly evolved toward the typical β‐sheet profile (already within 24 h) with a single minimum at 216 nm, an x‐axis intercept at 202 nm and a maximum shift at a wavelength 195 nm.[49] […] For the sake of comparison, the CD spectra of the porphyrin‐peptide conjugates at 20 μM were also recorded in the same experimental conditions, both in the far‐UV and Visible regions (Figure 6S).
The experiments were performed on a Creoptix WAVE system (Creoptix). Borate buffer (100 mM sodium borate pH 9.0, 1 M NaCl) was used for chip conditioning. Aβ42 peptide (20 μg/ml in Na Acetate pH 4.5) was immobilized on 4PCH WAVE chips (quasiplanar polycarboxylate surface; Creoptix) according to the manufacturer instructions at a final density of 1910±40 pg/mm^2. Single‐cycle sequential injections of dilution series for each Porphyrin‐Peptide conjugates in running buffer (PBS, 0.005 % Tween 20, 1 % DMSO, 0.2 mg/ml BSA) were performed at 25 °C, using a flow rate of 100 μl/min. In details, for the conjugate Cu‐Ph‐Pep , 1 : 2 dilution series starting from 200 μM were injected for 10 s association time, 45 s dissociation time, followed by a dissociation time of 600 s for the last higher concentration injection. Finally, for the conjugates Ph‐Pep and Zn‐Ph‐Pep , 1 : 2 dilution series starting from 50 μM and 100 uM, respectively, were injected for 30 s association time, 45 s dissociation time, followed by a dissociation time of 600 s for the last higher concentration injection. Blank injections were used for double referencing and a DMSO calibration curve for bulk correction. Analysis and correction of the obtained data were performed using the Creoptix WAVE control software (correction applied: X and Y offset; DMSO calibration; double referencing). Mass transport binding models with bulk correction were used to fit all experiments. All the experiments have been performed at least in triplicate.
Figure 5S. Quantitative binding kinetics of Aβ42 vs a) MCPTPyP; b) Cu-Ph-Pep; c) Ph-Pep; d) Zn-Ph-Pep; and e) Pep measured by GCI. All curves were blank subtracted. Experiments were performed in triplicate. All the quality assessments (i.e., χ2 shown in Table 1 of the main text , parameter errors, and residual plots were acceptable; the sensorgrams had sufficient curvatures an d the kinetic constant k off were within the measurable range) were fulfilled. Descriptive Statistical Analysis was employed to calculate the mean of the obtained values of k on, koff and KD as a measure of central tendency and standard deviations of the former values were computed as a measure of dispersion.
Figure 6S. […]

T1 sequence (P05067 672-713 limits assumed): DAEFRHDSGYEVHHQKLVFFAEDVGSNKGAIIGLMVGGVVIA

`COC(=O)[C@H](Cc1cn(CCCC[C@H](NC(=O)CNC(C)=O)C(=O)N2CCC[C@H]2C(=O)NCC(=O)N[C@@H](CCCCN)C(=O)N[C@@H](CC(C)C)C(=O)N[C@H](C(=O)N[C@@H](Cc2ccccc2)C(=O)N[C@@H](Cc2ccccc2)C(N)=O)C(C)C)nn1)NC(=O)c1ccc(-c2c3nc(c(-c4cc[n+](C)cc4)c4ccc([nH]4)c(-c4cc[n+](C)cc4)c4nc(c(-c5cc[n+](C)cc5)c5ccc2[nH]5)C=C4)C=C3)cc1` [Zn‐Ph‐Pep] was tested, and the “effect on Aβ42 fibril formation (bis-Ans fluorescence)” value (Aβ42 [1]) was “might support or even accelerate Aβ42’s fibril formation” and the “χ^2 (average of the squared residuals, fitting confidence)” value (Aβ42 [2]) was 0.49±0.09.
